The results in this text go back to publication PMC12079668.

One test has as its target nanobody NbB7. Kind of test: ITC. Conditions: chain shown with the change.
Test [1] deals with T1, zebrafish Cavin4a HR1 domain (residues 16-123) (zebrafish) (UniProt A1L260).
T1 sequence: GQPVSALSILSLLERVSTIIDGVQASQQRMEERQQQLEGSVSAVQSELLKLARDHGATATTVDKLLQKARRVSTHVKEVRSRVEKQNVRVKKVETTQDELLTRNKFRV
The experiment in a line: ITC; NbA12 at 500 μM or NbB7 at 400 μM titrated into 30 μM (monomer) cavin HR1 domain or His-MBP full-length mC1; GF150 buffer (20 mM HEPES pH 7.4, 150 mM NaCl), 25°C; fitted with a 1:1 binding ratio. In general terms: In ITC the heat of successive injections is recorded.

B1: mouse Cavin1 HR1 domain (residues 45–155), His-Ub-tagged, O54724 K115Q; R117Q; K118Q; K124Q; R127Q (protein)
chain: LIKSDQVNGVLVLSLLDKIIGAVDQIQLTQAQLEERQAEMEGAVQSIQGELSKLGKAHATTSNTVSKLLEQVQQVSVNVQTVQGSLERQAGQIKKLEVNEAELLRRRNFKV
The molecule B1 gave a Kd with nanobody NbB7 of 892 nM.

B2: Nanobody NbB7 (VHH)
VHH: QVQLQESGGGLVQAGGSLRLSCAVSGIRVNVNAMYWYRQAPGKQRELVAIITTFGSTNYADSAKGRFTISRDNTKNTVYLQMDNLKPEDTAVYYCNAPQFTDRYWGQGTQVTVSS
Turning to B2, in test [1], the Kd was found to be 1490 nM.

The Kd is the free concentration of one partner at which half of the binding sites on the other are occupied at equilibrium, for simple one-to-one binding.
